The assay addresses 3xFLAG-CENP-T^Δ161–216 (chicken) (UniProt F1NPG5).

1 substance from PMC11612794 can be followed below.

In the case of “Mis12 complex (Mis12C) containing GFP-Dsn1^WT (from UniProt Q1T769 1-210; A0A8V0ZA15 1-290)”, the GFP-Dsn1 (Mis12C) level at mitotic kinetochores in CENP-C^Δ73 cells after IAA came out at 15%.
